In paper doi:10.1101/2024.03.11.584335:
Where a chain is given by its changes, count along the chain named. Read-outs that look alike come from different tables or passages of the source.

B1: T8:P3 template:primer (mixed)
DNA: AATCTAGTAACATAGTATACATAAGCGCTCCAGGC
RNA: GCCUGGAGCGC
modifications: P3 is a chimeric RNA-DNA primer (RNA/DNA boundary not in the material) with 3'-dideoxycytidine
B2: T9:P4 template:primer (mixed)
DNA: B1 DNA with A24G
RNA: GCCUGGAGCGC
modifications: P4 primer contains U (RNA-DNA chimera?) and 3'-dideoxycytidine

Tests used:
[1] = target: RPAcoreΔP,W (minimal trimerization core, domains C, D, E) (human, UniProt P27694;P15927;P35244 438-616;35-174;1-121); assay: BLI
[2] = target: T1, RPAcoreΔP (human, UniProt P27694;P15927;P35244 438-616;35-270;1-121); assay: BLI
[3] = target: T1, RPAcoreΔP; assay: BLI; remark: listed apart in the source
[4] = target: RPAcore;PolαCD (catalytic domain of DNA polymerase alpha) (human;human, UniProt P27694;P15927;P35244;P09884 438-616;1-270;1-121;335-1257, |); assay: cryo-EM
RPAcore;PolαCD (catalytic domain of DNA polymerase alpha), sequence (P27694 438-616, chain 1 of 4): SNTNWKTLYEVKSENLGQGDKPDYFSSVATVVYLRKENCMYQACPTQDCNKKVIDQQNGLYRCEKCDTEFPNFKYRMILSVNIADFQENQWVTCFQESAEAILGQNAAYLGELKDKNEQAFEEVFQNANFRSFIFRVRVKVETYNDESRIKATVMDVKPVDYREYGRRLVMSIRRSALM
RPAcore;PolαCD (catalytic domain of DNA polymerase alpha), sequence (P15927 whole entry, chain 2 of 4, the tested form may be a part): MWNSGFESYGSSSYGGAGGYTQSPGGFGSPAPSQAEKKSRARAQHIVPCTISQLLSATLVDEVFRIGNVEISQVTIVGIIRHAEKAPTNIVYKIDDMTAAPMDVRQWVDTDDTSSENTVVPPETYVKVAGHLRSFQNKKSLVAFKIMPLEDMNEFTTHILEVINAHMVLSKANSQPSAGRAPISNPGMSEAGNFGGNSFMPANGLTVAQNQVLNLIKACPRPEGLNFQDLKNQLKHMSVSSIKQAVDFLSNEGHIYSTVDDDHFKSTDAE
RPAcore;PolαCD (catalytic domain of DNA polymerase alpha), sequence (P35244 whole entry, chain 3 of 4, the tested form may be a part): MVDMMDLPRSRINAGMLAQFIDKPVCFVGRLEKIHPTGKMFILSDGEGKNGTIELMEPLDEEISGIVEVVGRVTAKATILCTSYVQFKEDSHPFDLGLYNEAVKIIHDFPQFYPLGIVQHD
RPAcore;PolαCD (catalytic domain of DNA polymerase alpha), sequence (P09884 335-1257, chain 4 of 4): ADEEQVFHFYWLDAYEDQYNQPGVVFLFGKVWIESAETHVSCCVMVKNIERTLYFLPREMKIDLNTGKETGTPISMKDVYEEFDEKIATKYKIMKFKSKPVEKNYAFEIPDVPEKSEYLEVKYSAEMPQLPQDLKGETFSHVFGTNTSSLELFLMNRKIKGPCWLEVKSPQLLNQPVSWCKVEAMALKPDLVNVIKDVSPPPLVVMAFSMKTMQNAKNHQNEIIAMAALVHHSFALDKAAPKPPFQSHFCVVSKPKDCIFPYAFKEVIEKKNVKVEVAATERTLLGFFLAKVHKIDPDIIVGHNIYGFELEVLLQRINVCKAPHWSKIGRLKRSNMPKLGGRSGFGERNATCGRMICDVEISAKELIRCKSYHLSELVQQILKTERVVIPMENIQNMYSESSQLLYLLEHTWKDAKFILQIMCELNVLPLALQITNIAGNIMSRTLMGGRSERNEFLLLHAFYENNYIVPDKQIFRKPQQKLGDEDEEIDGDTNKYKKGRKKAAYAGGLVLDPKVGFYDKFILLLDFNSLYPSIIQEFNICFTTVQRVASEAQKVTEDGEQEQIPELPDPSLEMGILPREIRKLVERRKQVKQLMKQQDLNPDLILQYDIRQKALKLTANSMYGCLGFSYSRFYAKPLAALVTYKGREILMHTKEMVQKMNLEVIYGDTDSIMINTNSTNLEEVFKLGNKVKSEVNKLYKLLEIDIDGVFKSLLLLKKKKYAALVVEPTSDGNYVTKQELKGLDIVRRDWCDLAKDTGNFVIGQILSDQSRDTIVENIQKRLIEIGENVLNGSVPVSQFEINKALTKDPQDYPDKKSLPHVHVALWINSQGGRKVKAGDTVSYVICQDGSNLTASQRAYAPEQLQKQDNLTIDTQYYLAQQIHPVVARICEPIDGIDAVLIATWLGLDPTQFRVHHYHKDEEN

T1 sequence (P27694 438-616, stated change not applied, chain 1 of 3): as the sequence (P27694 438-616, chain 1 of 4) above
T1 sequence (P15927 35-270, stated change not applied, chain 2 of 3): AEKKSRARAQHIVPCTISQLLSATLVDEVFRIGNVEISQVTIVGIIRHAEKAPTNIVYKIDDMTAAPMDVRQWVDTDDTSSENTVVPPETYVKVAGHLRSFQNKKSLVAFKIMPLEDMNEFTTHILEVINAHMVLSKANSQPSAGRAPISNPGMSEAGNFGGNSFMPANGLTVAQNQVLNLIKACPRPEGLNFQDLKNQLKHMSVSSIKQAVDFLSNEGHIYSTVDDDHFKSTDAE
T1 sequence (P35244 whole entry, stated change not applied, chain 3 of 3): as the sequence (P35244 whole entry, chain 3 of 4, the tested form may be a part) above
RPAcoreΔP,W (minimal trimerization core, domains C, D, E), sequence (P27694 438-616, stated change not applied, chain 1 of 3): as the sequence (P27694 438-616, chain 1 of 4) above
RPAcoreΔP,W (minimal trimerization core, domains C, D, E), sequence (P15927 35-174, stated change not applied, chain 2 of 3): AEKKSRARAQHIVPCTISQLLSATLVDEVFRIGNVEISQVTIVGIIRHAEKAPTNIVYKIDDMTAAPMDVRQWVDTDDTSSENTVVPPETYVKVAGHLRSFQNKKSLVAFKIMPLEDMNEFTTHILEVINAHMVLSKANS
RPAcoreΔP,W (minimal trimerization core, domains C, D, E), sequence (P35244 whole entry, stated change not applied, chain 3 of 3): as the sequence (P35244 whole entry, chain 3 of 4, the tested form may be a part) above

Binder | Kd [1] [nM] | Kd [2] [nM] | Kd [3] [nM] | binding result [4]
B1 | 90.2 ± 4.5 | 124 ± 15 | 50.3 ± 6.6 | –
B2 | – | – | – | binds
